Assay [1] addresses OmpF trimer (Escherichia coli (endogenous in B^E3000)) (UniProt P02931). The experiment in a line: ITC.
The target of the next assay is OmpF (Escherichia coli) (UniProt P02931). The experiment in a line: ITC. The conditions noted are these: cited from earlier work.

As for “(OBS2)3, TMEA-mediated tridentate OBS2 in the form of a colicin DNase fusion (S71C ColE9^53–83-DNase) (from UniProt P09883 53-83)”, in assay [1], the dissociation constant Kd worked out at 480 nM, the dH was -5.64 kcal·mol^–1 and the stoichiometry N worked out at 3. As for Colicin E9 OBS2 peptide, the Kd in the assay with OmpF (Escherichia coli) is 24000 nM. Take “Colicin E9 OBS1 peptide OBS1 (from UniProt P09883)”: the dissociation constant (Kd) in the assay with OmpF (Escherichia coli) is 2000 nM.

Values taken from PMC6093495.
